Biological target: PD-1 Fc fusion protein (UniProt Q15116)
Test: SPR (Biacore 3000), recombinant PD-1 Fc immobilised on CM5 chip, fusion protein injected

PD-1 Fc fusion protein, sequence (Q15116 25-167 limits assumed): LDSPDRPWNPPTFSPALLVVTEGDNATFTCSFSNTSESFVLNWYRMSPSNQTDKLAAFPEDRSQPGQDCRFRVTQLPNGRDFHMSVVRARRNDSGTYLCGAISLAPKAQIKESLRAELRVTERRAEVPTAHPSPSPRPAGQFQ

Kd: 0.563 nM
B1: Anti-PD1 (VH7-VL6) scFv-Fc-ADA2 (Fc fusion, part only; not given: scFv linker and Fc, not shown: a dimerising Fc or GST)
scFv (part 1 of 2), part: QVQLVQSGVEVKKPGASVKVSCKASGYTFTNYYMYWVRQAPGQGLEWMGGINPSNGGTNFNEKFKNRVTLTTDSSTTTAYMELKSLQFDDTAVYYCARRDYRFDMGFDYWGQGTTVTVSSEIVLTQSPATLSLSPGERATLSCRASKGVSTSGYSYLHWYQQKPGQAPRLLIYLASYLESGVPARFSGSGSGTDFTLTISSLEPEDFAVYYCQHSRDLPLTFGGGTKVEIK
scFv (part 2 of 2), part: GGGGSGGGGSIDETRAHLLLKEKMMRLGGRLVLNTKEELANERLMTLKIAEMKEAMRTLIFPPSMHFFQAKHLIERSQVFNILRMMPKGAALHLHDIGIVTMDWLVRNVTYRPHCHICFTPRGIMQFRFAHPTPRPSEKCSKWILLEDYRKRVQNVTEFDDSLLRNFTLVTQHPEVIYTNQNVVWSKFETIFFTISGLIHYAPVFRDYVFRSMQEFYEDNVLYMEIRARLLPVYELSGEHHDEEWSVKTYQEVAQKFVETHPEFIGIKIIYSDHRSKDVAVIAESIRMAMGLRIKFPTVVAGFDLVGHEDTGHSLHDYKEALMIPAKDGVKLPYFFHAGETDWQGTSIDRNILDALMLNTTRIGHGFALSKHPAVRTYSWKKDIPIEVCPISNQVLKLVSDLRNHPVATLMATGHPMVISSDDPAMFGAKGLSYDFYEVFMGIGGMKADLRTLKQLAMNSIKYSTLLESEKNTFMEIWKKRWDKFIADVATK

— patent US20240141045A1
